Experimental data published in the supplement of paper PMC9112550, “Optimization of the antimicrobial peptide Bac7 by deep mutational scanning” (BMC Biology, 2022).

Test system: Escherichia coli TOP10
Assay: shrunken log2 fold change of peptide-encoding DNA abundance (4.5 h post-induction vs induction); higher = less antimicrobial activity (less host growth inhibition)
Conditions: time post-induction: 4.5 h; library: site-saturation at positions 5, 18, 19, 20
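Further: peptides expressed intracellularly from a pBAD plasmid library in pooled LB shake-flask culture, induced with 0.3% L-arabinose, DNA abundance read by NGS, three biological replicates, DESeq2 with apeglm shrinkage.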

Sequence	shrunken log2 fold change
RRIRSRPPRLPRPRPRPSLEPRP	0.0147
RRIRWRPPRLPRPRPRPKNIPRP	-0.159
RRIRHRPPRLPRPRPRPHAQPRP	0.0272
RRIRYRPPRLPRPRPRPFGMPRP	-0.00968
RRIRSRPPRLPRPRPRPETFPRP	0.0203
RRIRHRPPRLPRPRPRPMMAPRP	0.183
RRIRDRPPRLPRPRPRPWPNPRP	0.0619
RRIRWRPPRLPRPRPRPYPPPRP	-0.332
RRIRLRPPRLPRPRPRPYDMPRP	-0.921
RRIRTRPPRLPRPRPRPQGWPRP	0.704
RRIRDRPPRLPRPRPRPCIIPRP	-0.0943
RRIRSRPPRLPRPRPRPGNHPRP	-0.311
RRIRKRPPRLPRPRPRPRAEPRP	0.632
RRIRWRPPRLPRPRPRPDHNPRP	-0.302
RRIRDRPPRLPRPRPRPTAQPRP	0.0542
RRIRYRPPRLPRPRPRPKMMPRP	-1.3
RRIRQRPPRLPRPRPRPRKKPRP	-0.0181
RRIRHRPPRLPRPRPRPPKWPRP	0.345
RRIRCRPPRLPRPRPRPHILPRP	-0.476
RRIRGRPPRLPRPRPRPTYCPRP	0.309
RRIRSRPPRLPRPRPRPRALPRP	0.0323
RRIRERPPRLPRPRPRPDCWPRP	-0.0875
RRIRYRPPRLPRPRPRPITGPRP	0.0176
RRIRHRPPRLPRPRPRPHHTPRP	-0.71
RRIRERPPRLPRPRPRPAYHPRP	-0.223

Sequence	shrunken log2 fold change
RRIRKRPPRLPRPRPRPQWCPRP	0.149
RRIRPRPPRLPRPRPRPCMTPRP	-0.106
RRIRCRPPRLPRPRPRPTVQPRP	0.0608
RRIRRRPPRLPRPRPRPSWSPRP	-0.116
RRIRIRPPRLPRPRPRPGYRPRP	-0.217
RRIRFRPPRLPRPRPRPIHGPRP	-0.0163
RRIRSRPPRLPRPRPRPRRIPRP	0.135
RRIRIRPPRLPRPRPRPKAAPRP	0.147
RRIRCRPPRLPRPRPRPMRAPRP	0.919
RRIRSRPPRLPRPRPRPQWQPRP	0.0358
RRIRTRPPRLPRPRPRPWCRPRP	-0.263
RRIRKRPPRLPRPRPRPLAPPRP	0.65
RRIRFRPPRLPRPRPRPMIMPRP	0.234
RRIRWRPPRLPRPRPRPGMHPRP	0.343
RRIRDRPPRLPRPRPRPMPMPRP	0.0753
RRIRMRPPRLPRPRPRPQHGPRP	0.0121
RRIRQRPPRLPRPRPRPYCEPRP	-0.327
RRIRRRPPRLPRPRPRPAGTPRP	-0.0331
RRIRPRPPRLPRPRPRPRAMPRP	0.292
RRIRRRPPRLPRPRPRPKLPPRP	0.369
RRIRIRPPRLPRPRPRPSNFPRP	-0.335
RRIRKRPPRLPRPRPRPKIQPRP	0.113
RRIRIRPPRLPRPRPRPTCEPRP	-0.132
RRIRTRPPRLPRPRPRPAGYPRP	0.138
RRIRSRPPRLPRPRPRPSLGPRP	0.319

Sequence	shrunken log2 fold change
RRIRTRPPRLPRPRPRPTYVPRP	-0.163
RRIRKRPPRLPRPRPRPAVAPRP	0.0118
RRIRCRPPRLPRPRPRPWKYPRP	-0.0802
RRIRNRPPRLPRPRPRPQCAPRP	-0.0727
RRIRPRPPRLPRPRPRPAAAPRP	0.56
RRIRERPPRLPRPRPRPSIDPRP	-0.0545
RRIRYRPPRLPRPRPRPEMAPRP	-0.107
RRIRARPPRLPRPRPRPAKFPRP	0.168
RRIRSRPPRLPRPRPRPMKFPRP	-0.0589
RRIRPRPPRLPRPRPRPKHAPRP	0.824
RRIRFRPPRLPRPRPRPTMIPRP	-0.941
RRIRSRPPRLPRPRPRPIGYPRP	0.0746
RRIRQRPPRLPRPRPRPVQAPRP	-0.0131
RRIRLRPPRLPRPRPRPHDMPRP	-0.117
RRIRRRPPRLPRPRPRPTSSPRP	0.04
RRIRARPPRLPRPRPRPVLAPRP	1.18
RRIRKRPPRLPRPRPRPKWVPRP	0.339
RRIRRRPPRLPRPRPRPWRAPRP	0.181
RRIRWRPPRLPRPRPRPCFNPRP	-0.382
RRIRMRPPRLPRPRPRPSCMPRP	-0.0641
RRIRKRPPRLPRPRPRPMWTPRP	0.151
RRIRCRPPRLPRPRPRPDDHPRP	-0.338
RRIRHRPPRLPRPRPRPGTHPRP	0.0646
RRIRLRPPRLPRPRPRPLESPRP	-0.212
RRIRIRPPRLPRPRPRPLWDPRP	-0.113

Sequence	shrunken log2 fold change
RRIRKRPPRLPRPRPRPQLNPRP	0.0489
RRIRGRPPRLPRPRPRPLDRPRP	0.732
RRIRRRPPRLPRPRPRPEHKPRP	0.193
RRIRERPPRLPRPRPRPQHYPRP	-0.398
RRIRRRPPRLPRPRPRPCYRPRP	0.0724
RRIRHRPPRLPRPRPRPNLHPRP	-0.759
RRIRKRPPRLPRPRPRPHRRPRP	3.99
RRIRNRPPRLPRPRPRPCKRPRP	-0.0122
RRIRQRPPRLPRPRPRPDVLPRP	0.0137
RRIRQRPPRLPRPRPRPCKSPRP	0.00854
RRIRVRPPRLPRPRPRPFAMPRP	-0.252
RRIRQRPPRLPRPRPRPDMHPRP	0.161
RRIRVRPPRLPRPRPRPHIIPRP	-0.204
RRIRVRPPRLPRPRPRPKEGPRP	0.0282
RRIRVRPPRLPRPRPRPRQKPRP	0.212
RRIRLRPPRLPRPRPRPSPCPRP	-0.252
RRIRWRPPRLPRPRPRPSMFPRP	-0.0441
RRIRGRPPRLPRPRPRPTAIPRP	0.974
RRIRTRPPRLPRPRPRPCFWPRP	0.0653
RRIRTRPPRLPRPRPRPRPIPRP	-0.138
RRIRMRPPRLPRPRPRPVFQPRP	0.168
RRIRTRPPRLPRPRPRPPCFPRP	0.153
RRIRDRPPRLPRPRPRPTIQPRP	-0.0142
RRIRLRPPRLPRPRPRPPGWPRP	0.218
RRIRTRPPRLPRPRPRPYIQPRP	-0.274

Sequence	shrunken log2 fold change
RRIRSRPPRLPRPRPRPKHCPRP	-0.00217
RRIRDRPPRLPRPRPRPYNKPRP	-0.398
RRIRGRPPRLPRPRPRPDASPRP	1.34
RRIRFRPPRLPRPRPRPDENPRP	-0.0759
RRIRARPPRLPRPRPRPIMVPRP	-0.146
RRIRFRPPRLPRPRPRPLGRPRP	0.109
RRIRARPPRLPRPRPRPKLIPRP	0.128
RRIRARPPRLPRPRPRPEIFPRP	0.273
RRIRKRPPRLPRPRPRPKLAPRP	1.58
RRIRERPPRLPRPRPRPDVNPRP	-0.0793
RRIRGRPPRLPRPRPRPIIVPRP	-0.043
RRIRIRPPRLPRPRPRPQFMPRP	-0.831
RRIRFRPPRLPRPRPRPYYGPRP	-0.0202
RRIRGRPPRLPRPRPRPGYQPRP	-0.0619
RRIRARPPRLPRPRPRPNHEPRP	0.021
RRIRMRPPRLPRPRPRPWCSPRP	-0.075
RRIRSRPPRLPRPRPRPIFQPRP	-0.0307
RRIRDRPPRLPRPRPRPQEKPRP	0.0105
RRIRARPPRLPRPRPRPKRWPRP	0.586
RRIRIRPPRLPRPRPRPLSDPRP	0.0446
RRIRERPPRLPRPRPRPTYFPRP	-0.475
RRIRGRPPRLPRPRPRPWDDPRP	0.137
RRIRFRPPRLPRPRPRPKSYPRP	-0.201
RRIRYRPPRLPRPRPRPDHRPRP	-0.227
RRIRIRPPRLPRPRPRPQDEPRP	0.0381

Sequence	shrunken log2 fold change
RRIRPRPPRLPRPRPRPSCYPRP	-0.332
RRIRWRPPRLPRPRPRPRAVPRP	0.521
RRIRHRPPRLPRPRPRPEVRPRP	-0.00149
RRIRSRPPRLPRPRPRPHGSPRP	-0.0567
RRIRTRPPRLPRPRPRPATMPRP	-0.0723
RRIRDRPPRLPRPRPRPGGNPRP	-0.0716
RRIRERPPRLPRPRPRPQHLPRP	0.0167
RRIRGRPPRLPRPRPRPTQEPRP	1.38
RRIRARPPRLPRPRPRPEYKPRP	-0.0123
RRIRWRPPRLPRPRPRPPSKPRP	0.104
RRIRMRPPRLPRPRPRPHKSPRP	0.223
RRIRPRPPRLPRPRPRPDSKPRP	-0.238
RRIRNRPPRLPRPRPRPEESPRP	0.013
RRIRERPPRLPRPRPRPVCQPRP	0.121
RRIRRRPPRLPRPRPRPLIFPRP	-0.00389
RRIRDRPPRLPRPRPRPCPMPRP	-0.292
RRIRDRPPRLPRPRPRPGAPPRP	0.598
RRIRLRPPRLPRPRPRPSGGPRP	-0.153
RRIRMRPPRLPRPRPRPRAVPRP	0.989
RRIRQRPPRLPRPRPRPQDTPRP	-0.555
RRIRGRPPRLPRPRPRPRSIPRP	0.238
RRIRYRPPRLPRPRPRPWLPPRP	0.1
RRIRNRPPRLPRPRPRPGDHPRP	-0.0463
RRIRLRPPRLPRPRPRPPQNPRP	1.26
RRIRDRPPRLPRPRPRPHGKPRP	0.0283
